Measured values taken from article PMC4944837 (Molecular cell, 2007).
Read-outs that look alike come from different tables or passages of the source. Values belong to the binder of their own block, whether it stands above or below them.

Assays:
Test in all cases: pull-down
[1] = molecular target: T1, GST-Rb pocket (aa 379-792) (human, UniProt P06400 379-792)
T1 sequence (looked up): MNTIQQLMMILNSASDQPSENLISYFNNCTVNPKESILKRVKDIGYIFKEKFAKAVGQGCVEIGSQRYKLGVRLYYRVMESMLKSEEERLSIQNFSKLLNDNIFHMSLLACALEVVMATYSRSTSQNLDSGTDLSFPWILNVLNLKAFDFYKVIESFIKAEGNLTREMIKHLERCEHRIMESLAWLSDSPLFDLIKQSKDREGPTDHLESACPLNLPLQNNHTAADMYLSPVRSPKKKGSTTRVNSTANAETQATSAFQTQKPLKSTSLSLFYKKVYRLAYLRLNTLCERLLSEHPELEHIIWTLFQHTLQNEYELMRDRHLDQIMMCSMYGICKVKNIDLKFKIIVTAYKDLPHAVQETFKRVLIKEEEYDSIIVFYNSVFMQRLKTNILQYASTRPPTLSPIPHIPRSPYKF

GST-Rb∆N (aa 379-928) = molecular target: T2, GST-Rb∆N (aa 379-928) (human, UniProt P06400 379-928)
T2 sequence (looked up): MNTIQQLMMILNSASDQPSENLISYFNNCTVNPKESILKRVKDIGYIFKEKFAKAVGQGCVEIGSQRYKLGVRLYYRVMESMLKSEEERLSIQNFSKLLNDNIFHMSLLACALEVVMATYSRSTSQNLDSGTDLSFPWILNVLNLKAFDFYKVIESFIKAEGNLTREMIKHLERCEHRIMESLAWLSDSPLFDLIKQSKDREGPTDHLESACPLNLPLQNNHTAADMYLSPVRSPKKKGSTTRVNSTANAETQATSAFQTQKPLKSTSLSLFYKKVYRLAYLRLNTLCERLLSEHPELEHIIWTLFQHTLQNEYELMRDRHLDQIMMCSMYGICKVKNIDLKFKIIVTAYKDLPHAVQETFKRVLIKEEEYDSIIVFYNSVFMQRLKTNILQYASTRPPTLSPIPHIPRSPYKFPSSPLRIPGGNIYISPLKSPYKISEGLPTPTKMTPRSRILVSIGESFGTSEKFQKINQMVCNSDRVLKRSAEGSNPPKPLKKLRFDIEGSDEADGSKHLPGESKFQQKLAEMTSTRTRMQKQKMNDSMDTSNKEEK

[2] = molecular target: T1, GST-Rb pocket (aa 379-792); remark: listed apart in the source

binding result [1]: binds | binding result (GST-Rb∆N (aa 379-928)): binds
B1: RbN (aa 40-355), Rb N-terminal domain (domain or fragment, human, UniProt P06400 40-355, looked up)
chain: EDLPLVRLEFEETEEPDFTALCQKLKIPDHVRERAWLTWEKVSSVDGVLGGYIQKKKELWGICIFIAAVDLDEMSFTFTELQKNIEISVHKFFNLLKEIDTSTKVDNAMSRLLKKYDVLFALFSKLERTCELIYLTQPSSSISTEINSALVLKVSWITFLLAKGEVLQMEDDLVISFQLMLCVLDYFIKLSPPMLLKEPYKTAVIPINGSPRTPRRGQNRSARIAKQLENDTRIIEVLCKEHECNIDEVKNVYFKNFIPFMNSLGLVTSNGLPEVENLSKRYEEIYLKNKDLDARLFLDHDKTLQTDSIDSFETQR

binding result [1]: binds
B2: Rb 40-355 ∆Ex5 (domain or fragment, human, UniProt P06400 40-355, looked up)
chain: EDLPLVRLEFEETEEPDFTALCQKLKIPDHVRERAWLTWEKVSSVDGVLGGYIQKKKELWGICIFIAAVDLDEMSFTFTELQKNIEISVHKFFNLLKEIDTSTKVDNAMSRLLKKYDVLFALFSKLERSTEINSALVLKVSWITFLLAKGEVLQMEDDLVISFQLMLCVLDYFIKLSPPMLLKEPYKTAVIPINGSPRTPRRGQNRSARIAKQLENDTRIIEVLCKEHECNIDEVKNVYFKNFIPFMNSLGLVTSNGLPEVENLSKRYEEIYLKNKDLDARLFLDHDKTLQTDSIDSFETQR

binding result [2]: binds
B3: EID-1 LxCxE peptide (aa 172-187, LxCxE) (peptide, UniProt Q9Y6B2 172-187, looked up)
peptide: NRLTEELGCDEIIDRE
